Test results: patent US20060141582A1 (ZymoGenetics, published 2006)

Columns and labels:
[1] = target: CRF2-4/IL-22RA heterodimeric receptor on BaF3 cells (BaF3/CRF2-4/IL-22RA cells) (human) (UniProt Q08334); assay: cell-based or functional assay
[2] = target: T1, human IL-22RA on transfected cells (BaF3/IL-22RA/IL-20RB, BaF3/IL-22RA/CRF2-4, 293 or P815 cells) (human, UniProt Q8N6P7 16-574); assay: flow cytometry on P815 cells transfected with hIL-22RA, 5 ug/ml huIL-22-biotin; used to select the clone
T1 construct: also called huIL-22RA; hIL-22RA
T1 sequence: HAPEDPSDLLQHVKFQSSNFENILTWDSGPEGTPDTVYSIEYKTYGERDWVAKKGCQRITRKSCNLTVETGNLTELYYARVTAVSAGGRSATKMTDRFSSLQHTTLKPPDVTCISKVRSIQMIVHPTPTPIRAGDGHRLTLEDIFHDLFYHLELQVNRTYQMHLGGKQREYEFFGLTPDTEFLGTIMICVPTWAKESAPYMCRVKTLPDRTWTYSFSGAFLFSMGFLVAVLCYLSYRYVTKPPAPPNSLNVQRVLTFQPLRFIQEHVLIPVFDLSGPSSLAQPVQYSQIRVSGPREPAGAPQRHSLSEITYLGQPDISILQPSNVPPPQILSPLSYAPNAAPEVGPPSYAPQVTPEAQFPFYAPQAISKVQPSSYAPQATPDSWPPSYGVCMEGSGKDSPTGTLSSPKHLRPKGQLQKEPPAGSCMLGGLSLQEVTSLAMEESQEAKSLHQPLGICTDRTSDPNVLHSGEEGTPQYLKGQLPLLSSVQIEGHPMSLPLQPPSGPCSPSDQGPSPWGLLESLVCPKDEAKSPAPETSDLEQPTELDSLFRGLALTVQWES
Method: WT P815 Cells (ATCC No. TIB-64) were transfected with a plasmid vector containing the hIL-22RA cDNA sequence (e.g., SEQ ID NO:1) and a selectable puromycin-resistance marker, using Fugene Reagent according to the manufacturer's protocol (Roche, Indianapolis, Ind.). Cells were placed under Puromycin selection 48 hours following transfection. Puromycin-resistant transfectants were cloned by limiting dilution, and screened for their level of hIL-22RA cell surface expression by flow cytometry, using biotinylated human IL-22 (huIL-22-biotin). Briefly, cells were incubated with 5 ug/ml huIL-22-biotin for 30 minutes on ice and then washed. Binding of huIL-22-biotin to the cells was then detected using PE-labeled streptavidin at 1:500. Cells were analyzed on a Facscan flow cytometer using Cellquest software. (Becton Dickinson, San Jose, Calif.).

Chain of CRF2-4/IL-22RA heterodimeric receptor on BaF3 cells (BaF3/CRF2-4/IL-22RA cells) (human) (Q08334 20-325 limits assumed, one chain of several): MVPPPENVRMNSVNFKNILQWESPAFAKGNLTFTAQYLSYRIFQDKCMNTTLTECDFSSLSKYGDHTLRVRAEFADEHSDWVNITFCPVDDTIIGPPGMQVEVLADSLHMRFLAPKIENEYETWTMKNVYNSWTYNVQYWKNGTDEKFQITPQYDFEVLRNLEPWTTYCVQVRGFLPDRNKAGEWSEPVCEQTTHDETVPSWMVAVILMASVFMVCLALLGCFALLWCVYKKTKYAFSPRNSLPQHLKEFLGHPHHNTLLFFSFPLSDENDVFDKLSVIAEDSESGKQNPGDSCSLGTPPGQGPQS

“IL-22-CEE (IL-22 polypeptide containing C-terminal GluGlu (EE) tag), purified from BHK 570 cells (ligand)” was tested, and the proliferation of BaF3/CRF2-4/IL-22RA cells (Alamar Blue), fold induction at 0.06 ng/ml IL-22-CEE (fold induction) [1] was 2 and the proliferation of BaF3/CRF2-4/IL-22RA cells (Alamar Blue), fold over background at 50 ng/ml IL-22-CEE (fold over background) [1] was 15.

B1: biotinylated human IL-22 (ligand)
chain: APISSHCRLDKSNFQQPYITNRTFMLAKEASLADNNTDVRLIGEKLFHGVSMSERCYLMKQVLNFTLEEVLFPQSDRFQPYMQEVVPFLARLSNRLSTCHIEGDDLHIQRNVQKLKDTVKKLGESGEIKAIGELDLLFMSLRNACI
modifications: biotinylated (sites not given)
notes: also called huIL-22-biotin
B1: binds [2].
